The text below walks through data of US6232095.

This data set deals with Hmp1 (Ustilago maydis). Put plainly: competition.

Substance G/A mismatch 50-mer returned a binding signal (equal to C/T competitor at 75 nM) of 1 fold. On to G/C homoduplex 50-mer, for which, under “4-fold more homoduplex needed than C/T competitor, exact homoduplex pair not stated”, the binding signal came to 4 fold. Substance cruciform DNA 61-mer showed a binding signal (cruciform more effective competitor than C/T mismatch) of 7.5 fold.
